From article PMC7903523 (Nature, 2020)

Molecular target: the molecule itself
Assay: cryo-EM structure

B1: human sterol O-acyltransferase 1 (ACAT1), full length, C-terminal Flag-tag (enzyme, UniProt P35610 1-550, looked up)
chain: MVGEEKMSLRNRLSKSRENPEEDEDQRNPAKESLETPSNGRIDIKQLIAKKIKLTAEAEELKPFFMKEVGSHFDDFVTNLIEKSASLDNGGCALTTFSVLEGEKNNHRAKDLRAPPEQGKIFIARRSLLDELLEVDHIRTIYHMFIALLILFILSTLVVDYIDEGRLVLEFSLLSYAFGKFPTVVWTWWIMFLSTFSVPYFLFQHWATGYSKSSHPLIRSLFHGFLFMIFQIGVLGFGPTYVVLAYTLPPASRFIIIFEQIRFVMKAHSFVRENVPRVLNSAKEKSSTVPIPTVNQYLYFLFAPTLIYRDSYPRNPTVRWGYVAMKFAQVFGCFFYVYYIFERLCAPLFRNIKQEPFSARVLVLCVFNSILPGVLILFLTFFAFLHCWLNAFAEMLRFGDRMFYKDWWNSTSYSNYYRTWNVVVHDWLYYYAYKDFLWFFSKRFKSAAMLAVFAVSAVVHEYALAVCLSFFYPVLFVLFMFFGMAFNFIVNDSRKKPIWNVLMWTSLFLGNGVLLCFYSQEWYARQHCPLKNPTFLDYVRPRSWTCRYVF
B1 was tested, and the “stoichiometry N” value was 4.
